Blank lines part the entries; values can stand above or below the binder they belong to.
Tests used:
RPA = target: T1, RPA (UniProt Q92372;Q92373;Q92374 1-609;1-279;1-104); assay: EMSA; 1 mM EDTA; 50 ng RPA; 50 mM Tris-HCl pH 7.5, 1 mM EDTA, 1 mM DTT, 0.1 mg/ml BSA, 50 mM NaCl, 5% glycerol, 15 fmol DNA in 10 µl, room temperature 30 min; 5% PAGE in 1x TBE; details: protein: recombinant; tags: 6xHis-GST on Rpa1 in plasmid pDB2129; copies: 1;1;1; label: 5' 32P on oligo461; 18 bp duplex with 5' overhang 31 nt on oligo461
T1 sequence 1: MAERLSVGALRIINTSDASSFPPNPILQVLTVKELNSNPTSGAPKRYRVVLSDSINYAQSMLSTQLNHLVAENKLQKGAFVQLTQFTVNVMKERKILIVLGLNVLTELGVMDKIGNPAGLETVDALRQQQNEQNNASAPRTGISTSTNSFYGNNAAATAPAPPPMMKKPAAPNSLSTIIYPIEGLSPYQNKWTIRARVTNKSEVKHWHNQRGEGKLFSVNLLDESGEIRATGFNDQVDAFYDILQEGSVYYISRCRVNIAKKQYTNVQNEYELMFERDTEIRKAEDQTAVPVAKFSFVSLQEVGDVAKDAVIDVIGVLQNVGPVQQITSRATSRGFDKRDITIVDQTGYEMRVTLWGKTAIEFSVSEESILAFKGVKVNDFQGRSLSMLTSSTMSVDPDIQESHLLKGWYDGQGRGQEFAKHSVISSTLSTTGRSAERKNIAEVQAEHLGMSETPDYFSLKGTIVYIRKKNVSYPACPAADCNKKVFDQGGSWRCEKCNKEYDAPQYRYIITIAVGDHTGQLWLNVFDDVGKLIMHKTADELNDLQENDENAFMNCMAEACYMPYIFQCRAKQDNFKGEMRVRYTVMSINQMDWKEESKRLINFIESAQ
T1 sequence 2: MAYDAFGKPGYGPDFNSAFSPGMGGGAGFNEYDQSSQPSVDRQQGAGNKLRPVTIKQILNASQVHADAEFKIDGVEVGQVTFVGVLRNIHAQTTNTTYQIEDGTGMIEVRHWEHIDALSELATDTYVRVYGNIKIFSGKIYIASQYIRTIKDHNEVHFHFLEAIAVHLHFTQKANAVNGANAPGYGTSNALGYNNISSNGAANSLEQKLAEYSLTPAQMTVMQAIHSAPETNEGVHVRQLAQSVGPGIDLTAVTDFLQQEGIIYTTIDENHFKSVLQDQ
T1 sequence 3: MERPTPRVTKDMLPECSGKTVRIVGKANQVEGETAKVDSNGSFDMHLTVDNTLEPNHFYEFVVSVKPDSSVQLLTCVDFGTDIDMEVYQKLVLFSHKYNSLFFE

[1] = target: T2, Dna2 co-overexpressed with Cdc24-YFH and purified from fission yeast (S. pombe, UniProt Q9URU2 1-1397); assay: cross-linking; CXMS: Dna2-Cdc24-Pxd1(227–351) complex formed on anti-FLAG beads and eluted with 3× FLAG peptide; about 12 µg cross-linked by BS3 or DSS (0.5 mM, 1 h, room temperature), trypsin, LC-MS/MS, pLink; details: both partners purified
T2 construct: Dna2, S. pombe; The Dna2 chain of m29, written alone for the cross-links with Cdc24; source: fission yeast pxd1Δ cells, co-overexpressed with Cdc24-YFH, purified (anti-FLAG beads)
T2 sequence (looked up): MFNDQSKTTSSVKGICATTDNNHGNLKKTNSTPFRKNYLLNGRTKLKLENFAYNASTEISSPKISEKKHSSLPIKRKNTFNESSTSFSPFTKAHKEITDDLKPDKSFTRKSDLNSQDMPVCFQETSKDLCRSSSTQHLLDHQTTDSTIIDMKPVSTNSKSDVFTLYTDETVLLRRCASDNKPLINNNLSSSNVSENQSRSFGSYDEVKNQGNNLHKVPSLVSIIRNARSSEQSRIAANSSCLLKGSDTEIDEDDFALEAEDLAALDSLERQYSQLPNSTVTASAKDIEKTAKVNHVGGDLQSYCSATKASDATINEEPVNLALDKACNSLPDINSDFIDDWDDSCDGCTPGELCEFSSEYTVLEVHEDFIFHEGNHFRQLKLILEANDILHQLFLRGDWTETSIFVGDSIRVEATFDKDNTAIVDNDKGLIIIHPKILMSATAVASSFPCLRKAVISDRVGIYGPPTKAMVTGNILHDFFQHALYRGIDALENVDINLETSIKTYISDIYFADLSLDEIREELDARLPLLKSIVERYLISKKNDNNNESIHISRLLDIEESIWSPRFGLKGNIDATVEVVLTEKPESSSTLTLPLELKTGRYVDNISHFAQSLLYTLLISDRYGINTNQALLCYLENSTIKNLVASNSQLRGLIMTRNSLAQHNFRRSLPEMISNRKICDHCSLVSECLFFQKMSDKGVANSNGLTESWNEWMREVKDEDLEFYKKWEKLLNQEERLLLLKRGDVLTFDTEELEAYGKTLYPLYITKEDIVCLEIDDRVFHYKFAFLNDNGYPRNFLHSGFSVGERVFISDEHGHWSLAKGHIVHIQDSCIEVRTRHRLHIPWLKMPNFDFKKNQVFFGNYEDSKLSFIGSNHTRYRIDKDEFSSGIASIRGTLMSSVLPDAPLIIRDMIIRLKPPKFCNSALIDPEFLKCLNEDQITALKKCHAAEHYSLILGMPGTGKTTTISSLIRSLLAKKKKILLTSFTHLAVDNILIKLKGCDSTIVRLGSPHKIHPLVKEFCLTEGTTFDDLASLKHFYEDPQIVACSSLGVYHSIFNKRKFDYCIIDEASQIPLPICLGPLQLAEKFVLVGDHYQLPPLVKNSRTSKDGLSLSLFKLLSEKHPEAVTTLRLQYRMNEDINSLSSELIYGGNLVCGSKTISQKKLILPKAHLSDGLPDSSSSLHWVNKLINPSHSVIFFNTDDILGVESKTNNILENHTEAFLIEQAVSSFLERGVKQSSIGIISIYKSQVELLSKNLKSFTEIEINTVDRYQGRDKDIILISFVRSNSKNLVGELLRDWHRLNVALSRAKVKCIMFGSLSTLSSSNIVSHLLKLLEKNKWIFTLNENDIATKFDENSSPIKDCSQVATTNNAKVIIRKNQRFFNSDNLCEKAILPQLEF

B1: 5' overhang DNA (oligo461/oligo463) (dsDNA)
DNA 1: CACGCTACCGAATTCTGACTTGCTAGGACATCTTTGCCCACGTTGACCC
DNA 2: GGGTCAACGTGGGCAAAG
binding result (RPA): binds

binding result [1]: binds
B2: Cdc24-YFH co-overexpressed with Dna2 and purified from fission yeast (natural protein, S. pombe, UniProt O75004 1-501, looked up)
chain: MDFPGLIKKIKEDLENRLVEKSKQPAFTDYWLINKTISLLKEYPSGFSYPILINEIELACSERNKLDNVFSSLEWLTKSDAVIYLEDQFHFHCYDYYYTPIPSLKLKDSEENTCEMILHSSFYLLFHEPFNILKGSTLRFSQSRIHQKWYLRKQIRFLPTTSFVPVLQYAASKSFVKSMVESTEHEFFQIRDITISKSDQGVKRITVELGRIISLDKKGAFLIDNNTNFIHFSGTYHDFPKLLDKQQYLLIPFWSTVWEGSTNWQDGMIGILVILSENDFEEKKCDSWQVGRLAAVNSNFLVLDNNGQRVKILYSNSQKHYFKDTYIGDLLCISPINHSSDNLSDYSCVSDTTTEILSNLENPLSSNFLRNDLCKFSNLFSGVSGHLKIQPLTLVITGFVANLTRQSDLNTSLVLPEVNPLTAKMEVIDCLRNSFWAALRPNCVSYFASMISGFKELFQKEMEFPIYLDLKSYKLGFHWCDIYVDSEHNCHIQKINSLPCE
notes: Cdc24, S. pombe; The Cdc24 chain of m29, written alone for the cross-links; source: fission yeast pxd1Δ cells, co-overexpressed with Dna2, purified (anti-FLAG beads)

Source: article PMC4159138, “Fission Yeast Pxd1 Promotes Proper DNA Repair by Activating Rad16^XPF and Inhibiting Dna2” (PLoS Biology, 2014)
